This is an account of results in the supplement of paper PMC9170038.

The test system of this data set is MS2 coat protein. The data set can be described thus: apparent KD of MS2 coat protein; designed switch direction (-1 OFF switch, 1 ON switch): 1; higher = weaker reporter binding. Summed up: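 Transcription of designed RNA switches on Illumina chips was done by stalled E. coli RNA polymerase. SNAP-549-labelled MS2 coat protein was then titrated in doubling steps from 0.7 or 1.5 nM to 3 µM, with steps of 0.8–1.5 h at the lowest and 10–20 min at the highest concentration. The per-design median over clusters of curve-fitted normalised fluorescence is reported as apparent KD.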

Where [1] appears, read: input ligand: microRNA oligo, concentration not stated.

Consider “GCUAGGAUAUGCAGAGGAUCACCCUGUAGAAGGAGCAUUAGCUAGGAUAUGCAGAGGAUCACCCUGUAGAAGGAGCACUACUCU [pwkr ssNG3 DX 2xF5 +2xFMN.1] (Eterna round: R96, puzzle: Same State NG 3)”, for which the “apparent KD of MS2 coat protein” value (input ligand: FMN 200 uM) was 445 nM, the “apparent KD of MS2 coat protein” value under setting [1] amounted to 205 nM and the “apparent KD of MS2 coat protein” value (input ligand: none) was 248 nM.

Take “GGUAGGUUACUACCAGACAUGAGGAUCACCCAUGUAAGUGGGAAGGAUAUGGUACCGUUUCGGUACCAGAAGGUCCUAUGUAAG [JL SSNG3 1.45] (Eterna round: R96, puzzle: Same State NG 3)”: the “apparent KD of MS2 coat protein” value (input ligand: FMN 200 uM) was determined as 269 nM, the “apparent KD of MS2 coat protein” value under setting [1] came out at 88.7 nM and the “apparent KD of MS2 coat protein” value (input ligand: none) amounted to 936 nM.

For “ACAUGAGGAUCACCCAUGUAUAGAUUUGAAUGUUAAGUUACGUAGGAUAUCGUGUUUAGUAUGAUCGAGAAGGACGAUCUGAUA [JR_SSNG3_Sub066] (Eterna round: R96, puzzle: Same State NG 3)”, under setting [1], the “apparent KD of MS2 coat protein” value was determined as 18.6 nM.

As for “CCAACAUACAAUUUAAGAUCACAUGAGGAUCACCCAUGUAUGCAGGAUAUCAGCUCGAAUAGAGCUGAGAAGGGCAAUUUAAUU [SSNG3/1-A1] (Eterna round: R96, puzzle: Same State NG 3)”, the “apparent KD of MS2 coat protein” value amounted to 94.7 nM (input ligand: FMN 200 uM), 127 nM under setting [1] and 262 nM (input ligand: none).

As to “AUAAGACAGGCAGGAUAUGGGCCUGACUCUGAUAUCAGAGUCUACACAUGAGGAUCACCCAUGUCCCAGAAGGGCCUGAAGAAG [Zavean] (Eterna round: R96, puzzle: Same State NG 2)”, the “apparent KD of MS2 coat protein” value reads like this: (input ligand: FMN 200 uM) 17.6 nM; under setting [1], 92.2 nM; (input ligand: none) 102 nM.

In the case of “GCCAUCGUAUGAGGAUAUGGCACCGUUUCGGUGCCAGAAGGCAUGUCAAUUGACAUGAGGAUCACCCAUGUAUUUUCGAUGGCA [JL Fiskers NG1ss - 33 mod 11] (Eterna round: R96, puzzle: Same State NG 1)”, the “apparent KD of MS2 coat protein” value (input ligand: FMN 200 uM) is 74.6 nM, the “apparent KD of MS2 coat protein” value under setting [1] was 385 nM and the “apparent KD of MS2 coat protein” value (input ligand: none) is 779 nM.

As for “GUAGCAUACCGAGGAUAUUCAUAUUACAUGAGGAUCACCCAUGUGGCCAGCAUUAGCUGGCCUUGGGAGAAGGCGGAAUGCUAC [Xeonanis - 20 Mod49] (Eterna round: R96, puzzle: Same State NG 2)”, the “apparent KD of MS2 coat protein” value was 110 nM (input ligand: FMN 200 uM), 623 nM under setting [1] and 1150 nM (input ligand: none).

For “GUUACAUGAGGAUCACCCAUGUAUGUGUGGGAGUAAGUGUCUUAGGAUAUCUGAUAUUUAAUUUAAGAGAAGGAAGAUUGUUGU [JMF's solution 29] (Eterna round: R96, puzzle: Same State NG 3)”, the “apparent KD of MS2 coat protein” value was 119 nM (input ligand: FMN 200 uM), 69.6 nM under setting [1] and 85.5 nM (input ligand: none).

Consider “UAAAUACAUGAGGAUCACCCAUGUCAAAAGACAUGAGGAUAUGUACAGACUUCGGUCUGUACAGAAGGCAUGAAUA [salish99_ss1_r3_096] (Eterna round: R96, puzzle: Same State 1)”, for which, under setting [1], the “apparent KD of MS2 coat protein” value was found to be 417 nM.

In the case of “GGAAACAAGAGAGGAUAUGCAGAGGAUCACCCUGUAGAAGGCUCCCUAGAGAGGAUAUGCAGAGGAUCACCCUGCAGAAGGCUC [pwkr ssNG DX.18] (Eterna round: R96, puzzle: Same State NG 1)”, the “apparent KD of MS2 coat protein” value runs as follows: (input ligand: FMN 200 uM) 227 nM; under setting [1], 27.7 nM; (input ligand: none) 89.1 nM.

Turning to “CCGCGCUGUCGAGAGGAUAUGCGGUGAUGGACAUGAGGAUCACCCAUGUUAGCGAUAGCAUUACUGUAGAAGGCUCUACGGCGGC [JL-ss2-3.09 ViennaUCT mod] (Eterna round: R96, puzzle: Same State 2)”, the “apparent KD of MS2 coat protein” value is 11.2 nM (input ligand: FMN 200 uM), 10.2 nM under setting [1] and 16.3 nM (input ligand: none).

As to “AACAUGAGGAUCACCCAUGUGGAAUACUGAAGCAGCUCAGGGAAGGAUAUGGUUGACACCCUCGACCAGAAGGUCCAAAUUAAA [Onarar] (Eterna round: R96, puzzle: Same State NG 3)”, the “apparent KD of MS2 coat protein” value by setting is: (input ligand: FMN 200 uM) 63.3 nM; under setting [1], 98.2 nM; (input ligand: none) 121 nM.

As for “GGAGCCGGCCUAGGAUAUUUCAUAAUUUAACAUGAGGAUCACCCAUGUAGGCCAGAAGGCCUUGGGAAGAAGGAGGUCGGCUCC [Loop Effect - U26,U27,U28] (Eterna round: R96, puzzle: Same State NG 2)”, the “apparent KD of MS2 coat protein” value was 17.4 nM (input ligand: FMN 200 uM), 53.6 nM under setting [1] and 76.9 nM (input ligand: none).

With “GCUGGAAACCACAUGAGGAUCACCCAUGUUCCGGAAACGGCACAGGAUAUCUGUCCGAAAAGGUCAGAGAAGGGUGGAACCAGC [Fiskers NG3ss - 82] (Eterna round: R96, puzzle: Same State NG 3)”, the “apparent KD of MS2 coat protein” value by setting is: (input ligand: FMN 200 uM) 221 nM; under setting [1], 350 nM; (input ligand: none) 393 nM.

As to “AAGUGGAACUGAGGAUAUGGCAUCCGAACAUGAGGAUCACCCAUGUAGUUAGGAAAAGAACGGAGCCAGAAGGUAGGACUCCGC [Soqube] (Eterna round: R96, puzzle: Same State NG 2)”, the “apparent KD of MS2 coat protein” value (input ligand: FMN 200 uM) was found to be 10.6 nM, the “apparent KD of MS2 coat protein” value under setting [1] was 9.65 nM and the “apparent KD of MS2 coat protein” value (input ligand: none) is 15 nM.

For the sequence “GGUCCAUCAUGAGGAUAUGGCACCUUAUUGGUGCCAGAAGGCAUGUCUAUAGACAUGAGGAUCACCCAUGUAAUAAAUUGGACC [Eli NG1ss - 93] (Eterna round: R96, puzzle: Same State NG 1)”, the “apparent KD of MS2 coat protein” value reads like this: (input ligand: FMN 200 uM) 30.2 nM; under setting [1], 344 nM; (input ligand: none) 831 nM.

On to “UCUGCUGCCCAAGGAUAUCAGCGUGGUAUCCACAUGAGGAUCACCCAUGUAGGUCAGCACUACCCUGAGAAGGUGGGAAAAUAA [Eternabot solution 2] (Eterna round: R96, puzzle: Same State NG 2)”, for which the “apparent KD of MS2 coat protein” value is, setting by setting: (input ligand: FMN 200 uM) 14.4 nM; under setting [1], 10.6 nM; (input ligand: none) 15.1 nM.

For the sequence “CUCGUAUCGGGAGGAUAUGGUGCCUUGUUGGUGCUAGAAGGUCCAACAUGAGGAUCACCCAUGUGCGAGUGGUUGAGAGACCUC [SS NG10LRO14] (Eterna round: R96, puzzle: Same State NG 1)”, the “apparent KD of MS2 coat protein” value (input ligand: FMN 200 uM) came out at 708 nM, the “apparent KD of MS2 coat protein” value under setting [1] turned out to be 506 nM and the “apparent KD of MS2 coat protein” value (input ligand: none) was found to be 1000 nM.

For the sequence “ACAUGAGACCUAGGAUAUUUUGUACCUACAUGUGACAUGAGGAUCACCCAUGUGGUAAGUAUGAGAAAGAAGGAGGAGAUAUGU [Equivalence 21 - Jieux - Same State NG 2] (Eterna round: R96, puzzle: Same State NG 2)”, the “apparent KD of MS2 coat protein” value stood at 18.1 nM (input ligand: FMN 200 uM), 30.1 nM under setting [1] and 36.7 nM (input ligand: none).

Consider “AGAUGUUAAUCAGGAUAUGGGCACAUGAGGAUCACCCAUGUAAAUUAGAUACUAUGUGGUCAAGUCUAGAAGGGAUGGCUAACA [SameState NG2 #81] (Eterna round: R96, puzzle: Same State NG 2)”, for which the “apparent KD of MS2 coat protein” value was 346 nM (input ligand: FMN 200 uM), 145 nM under setting [1] and 182 nM (input ligand: none).
